Consider 167 variants from the Human Domainome abundance scans (Beltran et al. 2025).

B1: Chromodomain-helicase-DNA-binding protein 4, residues 623 to 675; numbered along this chain, Q14839 (parent)
chain: MIHRILNHSVDKKGHVHYLIKWRDLPYDQASWESEDVEIQDYDLFKQSYWNHR

± gives the uncertainty stated by the source.

The variants in this data set derive from B1. As to the kind of experiment: abundance fitness (aPCA) (normalised: wild type 0, dead -1); higher = more abundant; growth selection in yeast, the domain comes from the species named. The settings on record: Homo sapiens.
Regarding W22K, the abundance fitness was -0.891 ± 0.23.

W22C: the abundance fitness is -0.793 ± 0.14.

On to W22V, for which the abundance fitness was -0.55 ± 0.11.

On to W22A, for which the abundance fitness was -0.889 ± 0.14.

As to W22T, the abundance fitness is -0.871 ± 0.15.

Consider W22M, for which the abundance fitness was -0.447 ± 0.18.

Turning to W22L, the abundance fitness was -0.795 ± 0.091.

For W22E, the abundance fitness is -0.823 ± 0.2.

Turning to W22N, the abundance fitness was -1.13 ± 0.37.

Regarding W22S, the abundance fitness was -0.806 ± 0.097.

Turning to W22R, the abundance fitness was -0.855 ± 0.12.

For W22F, the abundance fitness is -0.825 ± 0.16.

Regarding W22I, the abundance fitness was -0.797 ± 0.23.

As for W22G, the abundance fitness was -0.88 ± 0.16.

In the case of W22P, the abundance fitness is -0.959 ± 0.15.

Regarding W22H, the abundance fitness is -0.733 ± 0.18.

In the case of W22Q, the abundance fitness was -0.796 ± 0.17.

As for V16M, the abundance fitness is -0.053 ± 0.11.

Consider V16W, for which the abundance fitness was -0.715 ± 0.33.

As to V16T, the abundance fitness was -0.059 ± 0.1.

In the case of V16F, the abundance fitness was -0.382 ± 0.16.

Turning to V16Y, the abundance fitness is -0.016 ± 0.17.

Turning to V16P, the abundance fitness was -0.59 ± 0.16.

Turning to V16Q, the abundance fitness is -0.549 ± 0.16.

With V16G, the abundance fitness was -0.757 ± 0.15.

On to V16A, for which the abundance fitness was -0.516 ± 0.12.

With V16E, the abundance fitness is -0.545 ± 0.2.

As for V16L, the abundance fitness is -0.11 ± 0.093.

V16C: the abundance fitness was -0.22 ± 0.17.

As for V16H, the abundance fitness is -0.288 ± 0.16.

As for V16R, the abundance fitness is -0.309 ± 0.14.

V16S: the abundance fitness is -0.745 ± 0.13.

Consider V16I, for which the abundance fitness is -0.059 ± 0.11.

Turning to V16K, the abundance fitness is -0.088 ± 0.12.

As to V16D, the abundance fitness is -0.611 ± 0.17.

On to L19G, for which the abundance fitness is -0.604 ± 0.17.

Regarding L19Y, the abundance fitness was -0.282 ± 0.26.

Consider L19S, for which the abundance fitness was -0.703 ± 0.17.

Regarding L19P, the abundance fitness is -0.74 ± 0.24.

In the case of L19N, the abundance fitness is -0.262 ± 0.35.

Turning to L19W, the abundance fitness was -0.866 ± 0.27.

In the case of L19F, the abundance fitness is -0.518 ± 0.21.

In the case of L19D, the abundance fitness was -0.71 ± 0.27.

For the variant L19C, the abundance fitness was -0.924 ± 0.27.

Consider L19V, for which the abundance fitness was -0.814 ± 0.14.

With L19T, the abundance fitness is -0.775 ± 0.3.

In the case of L19I, the abundance fitness is -0.772 ± 0.46.

In the case of L19H, the abundance fitness was -0.814 ± 0.2.

On to L19A, for which the abundance fitness is -0.892 ± 0.23.

For Y18P, the abundance fitness is -0.833 ± 0.14.

Consider Y18W, for which the abundance fitness is -0.787 ± 0.17.

For Y18H, the abundance fitness was -0.736 ± 0.2.

Turning to Y18N, the abundance fitness is -0.754 ± 0.18.

In the case of Y18V, the abundance fitness was -0.753 ± 0.11.

Consider Y18M, for which the abundance fitness is -0.957 ± 0.19.

Y18Q: the abundance fitness was -0.962 ± 0.2.

Consider Y18A, for which the abundance fitness is -0.688 ± 0.11.

Y18G: the abundance fitness was -0.798 ± 0.14.

On to Y18C, for which the abundance fitness is -0.59 ± 0.18.

In the case of Y18F, the abundance fitness is -0.43 ± 0.15.

As for Y18S, the abundance fitness was -0.681 ± 0.12.

Take Y18L: the abundance fitness is -0.86 ± 0.11.

For the variant Y18D, the abundance fitness is -0.963 ± 0.17.

On to Y18K, for which the abundance fitness was -0.838 ± 0.17.

As for Y18R, the abundance fitness was -1.05 ± 0.14.

Regarding I20F, the abundance fitness was -0.946 ± 0.13.

Consider I20V, for which the abundance fitness is -0.276 ± 0.088.

For I20Y, the abundance fitness was -0.825 ± 0.17.

Regarding I20E, the abundance fitness was -0.842 ± 0.31.

For I20M, the abundance fitness was -0.612 ± 0.14.

Take I20S: the abundance fitness was -0.778 ± 0.092.

On to I20N, for which the abundance fitness is -0.838 ± 0.15.

As for I20R, the abundance fitness was -0.722 ± 0.092.

Turning to I20K, the abundance fitness is -0.878 ± 0.29.

For the variant I20T, the abundance fitness was -0.885 ± 0.12.

Take I20G: the abundance fitness was -0.791 ± 0.12.

Regarding I20W, the abundance fitness was -0.633 ± 0.18.

As to I20A, the abundance fitness was -0.921 ± 0.1.

Take I20C: the abundance fitness was -0.686 ± 0.14.

In the case of I20L, the abundance fitness was -0.622 ± 0.087.

I20Q: the abundance fitness was -0.874 ± 0.21.

Regarding R23M, the abundance fitness is -0.265 ± 0.13.

For the variant R23D, the abundance fitness is -0.591 ± 0.18.

For the variant R23N, the abundance fitness was -0.5 ± 0.12.

Take R23T: the abundance fitness was -0.189 ± 0.12.

On to R23Q, for which the abundance fitness was -0.12 ± 0.13.

On to R23S, for which the abundance fitness is -0.236 ± 0.091.

For the variant R23C, the abundance fitness was -0.294 ± 0.11.

With R23F, the abundance fitness is -0.349 ± 0.11.

For R23A, the abundance fitness was -0.207 ± 0.11.

With R23E, the abundance fitness is -0.279 ± 0.16.

On to R23K, for which the abundance fitness was found to be 0.021 ± 0.14.

For the variant R23W, the abundance fitness was -0.183 ± 0.12.

In the case of R23P, the abundance fitness was -0.835 ± 0.17.

As to R23L, the abundance fitness was -0.219 ± 0.085.

Consider R23G, for which the abundance fitness is -0.481 ± 0.14.

In the case of R23Y, the abundance fitness is -0.139 ± 0.12.

Regarding R23H, the abundance fitness is -0.164 ± 0.15.

Regarding R23I, the abundance fitness is -0.161 ± 0.12.

As for H17V, the abundance fitness is -0.485 ± 0.085.

H17C: the abundance fitness is 0.031 ± 0.15.

Take H17F: the abundance fitness was -0.312 ± 0.2.

As to H17P, the abundance fitness is -0.91 ± 0.25.

H17R: the abundance fitness is -0.174 ± 0.077.

H17Y: the abundance fitness is -0.04 ± 0.11.

With H17N, the abundance fitness was -0.052 ± 0.15.

Take H17D: the abundance fitness is -0.43 ± 0.12.

Take H17E: the abundance fitness was -0.242 ± 0.093.

In the case of H17A, the abundance fitness was -0.252 ± 0.091.

Consider H17L, for which the abundance fitness was -0.292 ± 0.084.

As for H17T, the abundance fitness stood at 0.115 ± 0.11.

For H17I, the abundance fitness is -0.068 ± 0.13.

Regarding H17W, the abundance fitness was -0.302 ± 0.11.

With H17K, the abundance fitness came to 0.094 ± 0.11.

Consider H17S, for which the abundance fitness was -0.155 ± 0.094.

For the variant H17Q, the abundance fitness was -0.098 ± 0.12.

As to H17G, the abundance fitness was -0.756 ± 0.094.

On to H17M, for which the abundance fitness is -0.034 ± 0.094.

With H15W, the abundance fitness was -0.631 ± 0.15.

Turning to H15Y, the abundance fitness is -0.409 ± 0.11.

Take D24L: the abundance fitness was -0.535 ± 0.095.

Regarding D24N, the abundance fitness is -0.077 ± 0.1.

D24Q: the abundance fitness was -0.439 ± 0.14.

In the case of D24A, the abundance fitness is -0.335 ± 0.12.

On to D24I, for which the abundance fitness is -0.725 ± 0.16.

D24G: the abundance fitness was -0.115 ± 0.086.

For the variant D24H, the abundance fitness is -0.142 ± 0.16.

As to D24T, the abundance fitness is -0.309 ± 0.1.

With D24S, the abundance fitness is -0.294 ± 0.09.

As to D24F, the abundance fitness was -0.423 ± 0.14.

In the case of D24C, the abundance fitness was -0.588 ± 0.13.

Take D24Y: the abundance fitness was -0.53 ± 0.12.

Turning to D24V, the abundance fitness was -0.558 ± 0.1.

On to D24W, for which the abundance fitness is -0.353 ± 0.13.

Turning to D24R, the abundance fitness was -0.487 ± 0.094.

With D24E, the abundance fitness is -0.014 ± 0.097.

With D24M, the abundance fitness was -0.552 ± 0.13.

With D24K, the abundance fitness was -0.461 ± 0.14.

On to L25I, for which the abundance fitness is -0.344 ± 0.12.

Regarding L25Q, the abundance fitness is -0.045 ± 0.12.

As for L25P, the abundance fitness was -0.398 ± 0.12.

For L25M, the abundance fitness was determined as 0.096 ± 0.12.

For the variant L25N, the abundance fitness was -0.143 ± 0.11.

L25T: the abundance fitness is -0.013 ± 0.096.

For the variant L25H, the abundance fitness was -0.195 ± 0.13.

Regarding L25A, the abundance fitness is -0.256 ± 0.1.

Regarding L25E, the abundance fitness was -0.363 ± 0.12.

In the case of L25F, the abundance fitness is -0.254 ± 0.12.

With L25K, the abundance fitness worked out at 0.206 ± 0.11.

As to L25S, the abundance fitness is -0.125 ± 0.085.

In the case of L25R, the abundance fitness is 0.059 ± 0.09.

Take K21T: the abundance fitness is -0.949 ± 0.17.

For the variant K21L, the abundance fitness is -0.204 ± 0.089.

For the variant K21S, the abundance fitness was -0.406 ± 0.095.

As for K21P, the abundance fitness is -0.855 ± 0.14.

As to K21N, the abundance fitness was -0.561 ± 0.19.

On to K21V, for which the abundance fitness was -0.463 ± 0.1.

Consider K21A, for which the abundance fitness is -0.01 ± 0.098.

Turning to K21W, the abundance fitness is -0.201 ± 0.1.

As to K21G, the abundance fitness was -0.656 ± 0.13.

Consider K21D, for which the abundance fitness was -0.818 ± 0.19.

With K21C, the abundance fitness is -0.424 ± 0.14.

With K21F, the abundance fitness was -0.537 ± 0.15.

Regarding K21H, the abundance fitness is -0.008 ± 0.12.

For K21I, the abundance fitness was -0.581 ± 0.16.

Take K21Q: the abundance fitness is -0.106 ± 0.13.

Regarding K21Y, the abundance fitness was -0.349 ± 0.14.
